{
  "source": "patent US20160122418A1",
  "about": "(ARIDIS PHARMACEUTICALS, published 2016)",
  "binders": {"B1": {"name": "AR201 (antibody, V domains shown)", "VH": "LVQLRESGPGLVKPSQTLSLTCSVSGASINLYDYFWGWIRQAPGRGPEWIGYISGSTYYNPSLKRRATISVDTSKSQFFLELTSVTAADTAVYYCARDVGWGPQYYYGLDVWGQGTTVTVSS", "VL": "DLVLTQSPGTLSLSPGERATLSCRASHSVQSTSLAWYQQKRGQAPRLLIYGGSSRVTGIPDRFSGSGSGTDFTLTISRLEPEDFAVYYCQQSDRSPPITFGQGTRLEMK", "notes": "Recombinant human IgG1 made in HEK293T cells; kappa light chain cloned whole; The claims' numbering is used here; also called KBRV201; human monoclonal antibody AR201"}},
  "key": {"[1]": {"biological_target": "F protein of clinical RSV isolate #1 (RSV clinical isolate #1)", "assay": "cell-based or functional assay"}, "[2]": {"biological_target": "T1, F protein of palivizumab-resistant clinical RSV isolate #20 (RSV clinical isolate #20, UniProt P11209 26-574)", "T1 chain": "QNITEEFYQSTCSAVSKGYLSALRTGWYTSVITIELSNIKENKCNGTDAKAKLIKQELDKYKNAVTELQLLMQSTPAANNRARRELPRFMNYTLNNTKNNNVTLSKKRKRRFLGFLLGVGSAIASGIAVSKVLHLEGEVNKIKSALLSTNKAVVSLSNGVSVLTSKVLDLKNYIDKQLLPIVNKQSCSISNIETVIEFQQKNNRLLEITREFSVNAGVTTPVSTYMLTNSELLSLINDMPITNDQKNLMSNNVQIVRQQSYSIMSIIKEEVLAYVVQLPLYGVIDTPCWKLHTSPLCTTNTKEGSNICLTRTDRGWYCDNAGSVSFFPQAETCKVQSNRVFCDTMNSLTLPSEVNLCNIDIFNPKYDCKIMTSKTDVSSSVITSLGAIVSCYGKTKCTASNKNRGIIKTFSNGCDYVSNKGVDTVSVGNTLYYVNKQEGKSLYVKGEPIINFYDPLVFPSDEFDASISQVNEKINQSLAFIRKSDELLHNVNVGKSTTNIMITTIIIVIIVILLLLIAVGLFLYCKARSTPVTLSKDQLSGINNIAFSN", "assay": "cell-based or functional assay"}, "[3]": {"biological_target": "T2, Human RSV (A2) Fusion glycoprotein RSV F protein, Sino Biological Inc. (Human RSV (A2), UniProt P03420 26-529)", "T2 construct": "Bought protein; also called purified RSV F protein; recombinant human RSV F protein", "assay": "SPR, Biacore 2000, F protein amine-coupled to CM5 chip, antibody as analyte, Langmuir 1:1 fit"}, "[4]": {"biological_target": "T3, F protein on intact RSV particles (Example 10, strain or isolate not stated) (RSV, strain )", "T3 construct": "also called RSV viral particles", "assay": "competition ELISA; RSV particles pre-incubated with inhibiting mAb at 20 µg/mL; competitor (coating mAb): AR201"}, "[5]": {"biological_target": "T3, F protein on intact RSV particles …", "assay": "competition ELISA; RSV particles pre-incubated with inhibiting mAb at 20 µg/mL; competitor (coating mAb): palivizumab", "experimental": "After incubation for one hour at 4° C., plates were washed and polyclonal rabbit-anti-RSV-HRP labeled antisera was added to each well. Bound viral particles were detected by colorimetric measurement. Maximum binding of RSV to the immobilized antibody in the presence of the competitor antibody was determined relative to binding in the presence of the monoclonal human IgG control antibody."}, "[6]": {"biological_target": "T2, Human RSV (A2) Fusion glycoprotein RSV …", "assay": "ELISA, serial dilutions of purified AR201 on plates coated 'as described above' (RSV-EIA antigen by the legend of FIG. 6, or purified F protein); anti-human IgG-HRP"}},
  "data": [
    {"binder": "B1", "values": [
      {"measurement": "IC50 of neutralization, infectivity assay on Hep2 cells", "setting": "[1]", "value": 1700, "unit": "nM"},
      {"measurement": "IC50 of neutralization, infectivity assay on Hep2 cells", "setting": "[2]", "value": 1710, "unit": "nM"},
      {"measurement": "Kd", "setting": "[3]", "value": 0.058, "unit": "nM"},
      {"measurement": "koff", "setting": "[3]", "value": "2.7e-05", "unit": "s⁻¹"},
      {"measurement": "kon", "setting": "[3]", "value": 470000, "unit": "M⁻¹ s⁻¹"},
      {"measurement": "% binding of RSV to the coating mAb relative to control IgG", "setting": "[4]", "value": 22.5, "unit": "%"},
      {"measurement": "% binding of RSV to the coating mAb relative to control IgG", "setting": "[5]", "value": 40.8, "unit": "%"},
      {"measurement": "EC50", "setting": "[6]", "value": 0.103, "unit": "nM"}
    ]}
  ]
}
